According to the nanobody polyreactivity screen of Harvey et al. (2022):

experiment: yeast display, Sf9 membrane polyspecificity reagent, FACS + sequencing; frameworks hold sequencing errors
Summary of the method: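 A synthetic nanobody library was expressed on Saccharomyces cerevisiae BJ5465 by galactose induction for 36–48 hours. The library was stained for 1 hour at 4 °C with 10% biotinylated, detergent-solubilized Sf9 membrane reagent and enriched with streptavidin microbeads before FACS. Low and high (top ~1%) gates were set on anti-HA fluorescence for expression and streptavidin fluorescence for reagent binding, and each polyreactivity label reflects the gate of origin.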

Question: With “QVQLVESGGGLVQAGGSLRLSCAASGRIFRDYAMGWYRQAPGKERELVAAISLSGGSTYYADSVKGRFTISRDIAKNTVYLQVNSLKPEDTAVYYCAAKYYYGGNGYWGQGTQVNVSS” as the sequence, how does the “polyreactivity (PSR sort gate)” value read?
Answer: low polyreactivity

Question: Which “polyreactivity (PSR sort gate)” value does the source give for “QVQLVESGGGLVQAGGSLRLSCAASGRIFRDYTMGWYRTAPGKERELVAAITSGGSTYYADSVKGRFTISRDTAKNTVYLQMNSLKPEDTAVYYCNADGYVPGVDYWGLGTQVTVSS” here?
Answer: low polyreactivity

Question: Which “polyreactivity (PSR sort gate)” value does the source give for “QVQLVESGGGLVQAGGSLRLSCAASGRIFREYAMGWYRQAPGKERELVAAISSGASTYADSVKGRFTISRDNAKNTVYLQMNSLKPEDTAVYYCAKDIKLGPVGHSKYHRYDYWGQGTQVTVSS” here?
Answer: low polyreactivity

Question: Which “polyreactivity (PSR sort gate)” value does the source give for “QVQLVESGGGLVQAGGSLRLSCAASGRIFRFNAMGWYRQAPGKERELVAAITGSGGTTFYADSVKGRFTISRDNAKNTVYLQMNSLKPEDTAVYYCARQRTVKKYYYWGQGTQVTVSS” here?
Answer: high polyreactivity

Question: Which “polyreactivity (PSR sort gate)” value does the source give for “QVQLVESGGGLVQAGGSLRLSCAASGRIFRFYAMGCYIQAPGKERELVAVITARGGSTYYADSVKGRFTISRDNAKNNVYLQMNSLKPEDTAVYYCASTRVKGYTVVKSRRGEIDYWGQGTQVTVSS” here?
Answer: high polyreactivity

Question: Which “polyreactivity (PSR sort gate)” value does the source give for “QVQLVESGGGLVQAGGSLRLSCAASGRIFRFYAMGWYRQAPGKERELVAAISSSAGGTYADSVKGRFTISRDYAKNTVYLQMNSRKPEDTAVYYCAARAYALYDWGQGTQVTVSS” here?
Answer: high polyreactivity

Question: Which “polyreactivity (PSR sort gate)” value does the source give for “QVQLVESGGGLVQAGGSLRLSCAASGRIFRGNAMGWFRQAPGKERELVASISTSGVRTFYADSVKGRFTISRDNAKNTVYLQMNSLKPEDTAVYDCNKRDRYRMYGFNYWGQGTQVTVSS” here?
Answer: high polyreactivity

Question: With “QVQLVESGGGLVQAGGSLRLSCAASGRIFRGNAMGWYRQAPGKERELVATITKRGGSTYYADSVKGRFTISRDNAKNTVYLQMNSLKPEDTAVYYCNTRTYGYLTQKYDYWGQGTQVTVSS” as the sequence, how does the “polyreactivity (PSR sort gate)” value read?
Answer: high polyreactivity

Question: Which “polyreactivity (PSR sort gate)” value does the source give for “QVQLVESGGGLVQAGGSLRLSCAASGRIFRGNVMGWYRQAPGTERELVAAISGSGGSTYYADSVKGRFTISRDNAKNTVYLQMNSLKPEDTAVYYCAAGTAKTPRRSVGYWGQGTQVTVSS” here?
Answer: high polyreactivity

Question: With “QVQLVESGGGLVQAGGSLRLSCAASGRIFRGYAMGWYRQAPGKERELVAAISQSGSSTYYADSVKGRFTISRDNAKNTVYLQMNSLKPEDTAVYYCAVKYLKHFGYWGQGTQVTVSS” as the sequence, how does the “polyreactivity (PSR sort gate)” value read?
Answer: high polyreactivity

Question: With “QVQLVESGGGLVQAGGSLRLSCAASGRIFRGYAMGWYRQAPGKERELVAAISRGGNTDYADSVKGRFTISRDNAKNTVYLQMNSLKPEDTAVYYCAVGYVSYRKFYLYNSWGQGTQVTVSS” as the sequence, how does the “polyreactivity (PSR sort gate)” value read?
Answer: high polyreactivity

Question: Which “polyreactivity (PSR sort gate)” value does the source give for “QVQLVESGGGLVQAGGSLRLSCAASGRIFRGYAMGWYRQAPGKERELVADISSGASTNYADSVKGRFTISRDNAKKTVYFQMNSLKPEDTAVYYCAAQHSVLAYFEDDYWGQGTQVTVSS” here?
Answer: low polyreactivity

Question: For “QVQLVESGGGLVQAGGSLRLSCAASGRIFRGYAMGWYRQAPGKERELVADISSGASTNYADSVKGRFTISRDNAKNTVYFQMNSLKPEDTAVYYCAAQHSVLAYFEYDYWGQGTQVTVSS”, which “polyreactivity (PSR sort gate)” value is on record?
Answer: low polyreactivity

Question: For “QVQLVESGGGLVQAGGSLRLSCAASGRIFRGYAMGWYRQAPGTERELVAAITRGGSTKYADSVKGRFTISRDNAKNTVYLQMNSLKPEDTAVYYCAKDSYPYVPLYRSRSLYGYWGQGTQVTVSS”, which “polyreactivity (PSR sort gate)” value is on record?
Answer: high polyreactivity

Question: Which “polyreactivity (PSR sort gate)” value does the source give for “QVQLVESGGGLVQAGGSLRLSCAASGRIFRHYGMGWYRQAPGKERELVARITRSGGSTYYADSVKGRFTISRDNAKNTVYLQMTSLKPEDTAVYYCAAFTYGESWYDYWGQGTQVTVSS” here?
Answer: low polyreactivity

Question: Which “polyreactivity (PSR sort gate)” value does the source give for “QVQLVESGGGLVQAGGSLRLSCAASGRIFRIYAMGWYRQAPGKERELVARITYSGGSTYYADSVKGRFTISRDNAKNTVYLQMNSLKPEDTAVYFCAADWLGYQYGYWGQGTQVTVSS” here?
Answer: low polyreactivity

Question: For “QVQLVESGGGLVQAGGSLRLSCAASGRIFRIYTMGWYRQAPGKERELVAAITKSGGSTSYADSVKGRFTISRDNAKNTVYLQMNILKPEDTAVYYCNAKGWTRPPGYDYWGQGTQVTVSS”, which “polyreactivity (PSR sort gate)” value is on record?
Answer: high polyreactivity

Question: Which “polyreactivity (PSR sort gate)” value does the source give for “QVQLVESGGGLVQAGGSLRLSCAASGRIFRIYTMVWYRQAPGKERELVAVINSSGGRTYYADSVKGRFTISRDNAQNTVYLQMNSLKPEDTAVYYCNAVFGGGTMDYWGQGTQVTVSS” here?
Answer: high polyreactivity

Question: Which “polyreactivity (PSR sort gate)” value does the source give for “QVQLVESGGGLVQAGGSLRLSCAASGRIFRKYAMGWSRQAPGKEREFVAAISSSGGITYYADSVKGRFTISRDNAKNTVYLQMNSLKPEDTAVYYCADLYPQHRYDYWGQGTQVTVSS” here?
Answer: high polyreactivity

Question: With “QVQLVESGGGLVQAGGSLRLSCAASGRIFRKYAMGWYIQAPGKEREFVASIRSRGDSTYYADSVKGRFTISRDNAKNTVYLQMNSMKPEDTAVYYCAAVSGSGYDYWGQGTQVTVSS” as the sequence, how does the “polyreactivity (PSR sort gate)” value read?
Answer: high polyreactivity

Question: Which “polyreactivity (PSR sort gate)” value does the source give for “QVQLVESGGGLVQAGGSLRLSCAASGRIFRLYAMGWSRQAPGKERELVAAISSSGGDTYYADSVKGRFTISRDNAKNTVYLQMNSLKPEDTAVYYCNARKRYANVHYNYWGQGTQVTVSS” here?
Answer: high polyreactivity

Question: For “QVQLVESGGGLVQAGGSLRLSCAASGRIFRLYTMGWYRPAPGKERELVAAISGSGGRTYYADSVKGRFTISRDNAKNTVYLQMNSLKPEDTAVYYCAKVGYKSPYLYSQHYTGFGYWGQGTQVTVSS”, which “polyreactivity (PSR sort gate)” value is on record?
Answer: high polyreactivity

Question: With “QVQLVESGGGLVQAGGSLRLSCAASGRIFRPNAMGWYRQAPGKERELVAAITSNGGRTYYADSVKGRFTISRDNAKNTVYLQMNSLKPEDTAVYYCNAAPFRSGYGYWGQGTQVTVSS” as the sequence, how does the “polyreactivity (PSR sort gate)” value read?
Answer: high polyreactivity

Question: For “QVQLVESGGGLVQAGGSLRLSCAASGRIFRPYAMGWYRQAPGKERELVAAISVSGVITYYADSVKGRFTISRDNAKNTVYLQMNSLKPEDTAVYYCARRSSTRYFYGWYDYWGQGTQVTVSS”, which “polyreactivity (PSR sort gate)” value is on record?
Answer: low polyreactivity

Question: Which “polyreactivity (PSR sort gate)” value does the source give for “QVQLVESGGGLVQAGGSLRLSCAASGRIFRPYAMGWYRQAPGKERELVASISWRGSSTYYADSVKGRFTISRDNAKNTVYLQMNSLKPEDTAVYYCAARRYPTSGYAYWGQGTQVTVSS” here?
Answer: high polyreactivity

Question: For “QVQLVESGGGLVQAGGSLRLSCAASGRIFRRNAMGWYRQAPGKEREFVAAISYRGGSTYYADSVKGRFTISRDNAKNTVYLQMNSLKPEDTAVYYCAATGYGSAYNPYDHWGQGTQVTVSS”, which “polyreactivity (PSR sort gate)” value is on record?
Answer: high polyreactivity

Question: Which “polyreactivity (PSR sort gate)” value does the source give for “QVQLVESGGGLVQAGGSLRLSCAASGRIFRRNAMGWYRQAPGKERELVAAISSSGGRTYYADSVKGRFTISRDNAKNTVYLQMNSLKPEDTAVYYCATRESLEPGYYWGQGTQVTVSS” here?
Answer: high polyreactivity

Question: Which “polyreactivity (PSR sort gate)” value does the source give for “QVQLVESGGGLVQAGGSLRLSCAASGRIFRRYAMGWYREAPGKERELVAAITASGGITYYADSVKGRFTISRDNAKNTVYLQMNSLKPEDTAVYYCAARGSSGYDYWGQGTQVTVSS” here?
Answer: high polyreactivity

Question: For “QVQLVESGGGLVQAGGSLRLSCAASGRIFRRYAMGWYRQAPGKERELVAAISTRGGSTYYADSVKGRFTISRDNAKNTVYLPMNSLKPEDTAVYYCAAGRDPGYNNDDYWGQGTQVTVSS”, which “polyreactivity (PSR sort gate)” value is on record?
Answer: high polyreactivity

Question: For “QVQLVESGGGLVQAGGSLRLSCAASGRIFRRYAMGWYRQAPGKERELVADITYGVDSTYYADSVKGRFTISRDNAKNTVYLQMNSLKPEDTAVYYCNADRTEDLLYRFVGVTYGYWGQGTQVSVSS”, which “polyreactivity (PSR sort gate)” value is on record?
Answer: high polyreactivity

Question: For “QVQLVESGGGLVQAGGSLRLSCAASGRIFRRYAMGWYRQAPWKERELVAAISTSGVRTYYADSVKGRFTISRDNAKNTVYLQMNSLNPEDTAVYYCATVAGPPYDYWGQGTLVTVSS”, which “polyreactivity (PSR sort gate)” value is on record?
Answer: high polyreactivity

Question: For “QVQLVESGGGLVQAGGSLRLSCAASGRIFRSNAMGWYRQAPGKERELLAAISGSGSTTNYADSVKGRITISRDNAKNTVYLQMNSLKPEDTAVYYCATGKRGVSGRGFRYDYWGLGTQVTVSS”, which “polyreactivity (PSR sort gate)” value is on record?
Answer: high polyreactivity

Question: For “QVQLVESGGGLVQAGGSLRLSCAASGRIFRSNAMGWYRQAPRKERELVPAITSSDTSTYYADSVKGRFTISRDNAKNTVYLQMKSLKPEDTAVYYCAADFKPTGTNEPKELDYWGQGTQVTVSS”, which “polyreactivity (PSR sort gate)” value is on record?
Answer: low polyreactivity

Question: With “QVQLVESGGGLVQAGGSLRLSCAASGRIFRSNARGWYRPAPGKERELVAAISSNGGSTYYADSVKGRFTISRDNAKNTVYLQMNSLKPEDTAVYYCAARVYYPVRYGYWGQGTQVTVSS” as the sequence, how does the “polyreactivity (PSR sort gate)” value read?
Answer: high polyreactivity

Question: For “QVQLVESGGGLVQAGGSLRLSCAASGRIFRSYTMGWYRQAPGKERELVAAISKTGSRTYYADSVKGRFTISRDNAKNTVYLQMNSLKPEDTAVYYCAALFVHSYRDDYWGQGTQVTVSS”, which “polyreactivity (PSR sort gate)” value is on record?
Answer: high polyreactivity

Question: Which “polyreactivity (PSR sort gate)” value does the source give for “QVQLVESGGGLVQAGGSLRLSCAASGRIFRTYAMGWYRQAPGKERELVAAISGRGGNTYYADSVKGRFTSSRDNAKNTVYLQMNSLKPEETAVYYCAASKPARDTQQRWVYAGYDYWGQGTQVTVSS” here?
Answer: high polyreactivity

Question: With “QVQLVESGGGLVQAGGSLRLSCAASGRIFRTYAMGWYRQAPGKERELVAAISYSGGSTFYADSVKGRFTISRDNAKNSVYLQMNSLKPESTAVYYCAADSRAKRYYWGQGTQVTVSS” as the sequence, how does the “polyreactivity (PSR sort gate)” value read?
Answer: high polyreactivity

Question: For “QVQLVESGGGLVQAGGSLRLSCAASGRIFRVNSMGWYRQAPGKEREFVAAITKNGGSTYYADSVKGRFTISLDNANNTVYLQMNSLKPEDTAVYYCAVRAWDPYTGKCVYWGQGTQVTVSW”, which “polyreactivity (PSR sort gate)” value is on record?
Answer: low polyreactivity

Question: With “QVQLVESGGGLVQAGGSLRLSCAASGRIFRVYAMGWYRQAPGKERELVAAITSGGTTYADSVKGRFTISRDYAKNTVYLQMNSLKPEDTAVYYCAARYYIHRGYDYDYWGQGTQVTVSS” as the sequence, how does the “polyreactivity (PSR sort gate)” value read?
Answer: high polyreactivity

Question: With “QVQLVESGGGLVQAGGSLRLSCAASGRIFRVYAMGWYRQAPGKERQLVAAISYSGGRTFYADSVKGRFTISRDNSKNTVYLQMNSLIPEDTAVYYCAAKSYYTQALPPLDYWGQCTQVTVSS” as the sequence, how does the “polyreactivity (PSR sort gate)” value read?
Answer: low polyreactivity

Question: With “QVQLVESGGGLVQAGGSLRLSCAASGRIFRWNAMGWYRQAPGKERDLVAAISWRGANTYYADSVKGRFTISRDNAKNTVYLQMNSLKPEDTAVYYCARYSYRGSQSDSWGQGTQVTVSS” as the sequence, how does the “polyreactivity (PSR sort gate)” value read?
Answer: high polyreactivity
